Test results from publication PMC7840056.

Legend:
Assay in all cases: bacterial two-hybrid (BACTH), ß-galactosidase activity
[1] = molecular target: SlyD wild type fused to the T25 fragment of Bordetella pertussis adenylate cyclase (pNKT25) (UniProt O25748); conditions: E. coli strain BTH101; each measurement was performed three times; parent: est. 2500; read off a plot
[2] = molecular target: NiuD permease subunit of the NiuBDE nickel ABC transporter, full length, fused to the T18 fragment (pUT18); conditions: E. coli strain BTH101; each measurement was performed three times; parent: est. 2400; read off a plot
[3] = molecular target: NiuDΔ7, C-terminally truncated NiuD fused to the T18 fragment; conditions: E. coli strain BTH101; each measurement was performed three times; parent: est. 2500; read off a plot

For “NiuDΔ7, C-terminally truncated NiuD fused to the T18 fragment P203V”, the response [1] was 1500 Miller Units.

With “NiuDΔ7, C-terminally truncated NiuD fused to the T18 fragment R208G; W209G; R210G” the response [1] was 30 Miller Units.

Substance “NiuDΔ7, C-terminally truncated NiuD fused to the T18 fragment R208Q” has a response [1] of 95 Miller Units.

Work on “NiuDΔ7, C-terminally truncated NiuD fused to the T18 fragment R208S” yielded a response [1] of 1000 Miller Units.

Substance “NiuDΔ7, C-terminally truncated NiuD fused to the T18 fragment R210G” has a response [1] of 120 Miller Units.

For “NiuDΔ7, C-terminally truncated NiuD fused to the T18 fragment W209F”, the response [1] was 1200 Miller Units.

For “NiuDΔ7, C-terminally truncated NiuD fused to the T18 fragment W209G”, the response [1] was 720 Miller Units.

“SlyD wild type fused to the T25 fragment of Bordetella pertussis adenylate cyclase (pNKT25) (from UniProt O25748) I47S; Y73A; F137Y” showed a response [2] of 1800 Miller Units and a response [3] of 2100 Miller Units.
